The target of one data set is T1, GST-PAPP5 (Arabidopsis thaliana, UniProt Q84XU2).
T1 sequence (Q84XU2 1-484 isoform Q84XU2-2): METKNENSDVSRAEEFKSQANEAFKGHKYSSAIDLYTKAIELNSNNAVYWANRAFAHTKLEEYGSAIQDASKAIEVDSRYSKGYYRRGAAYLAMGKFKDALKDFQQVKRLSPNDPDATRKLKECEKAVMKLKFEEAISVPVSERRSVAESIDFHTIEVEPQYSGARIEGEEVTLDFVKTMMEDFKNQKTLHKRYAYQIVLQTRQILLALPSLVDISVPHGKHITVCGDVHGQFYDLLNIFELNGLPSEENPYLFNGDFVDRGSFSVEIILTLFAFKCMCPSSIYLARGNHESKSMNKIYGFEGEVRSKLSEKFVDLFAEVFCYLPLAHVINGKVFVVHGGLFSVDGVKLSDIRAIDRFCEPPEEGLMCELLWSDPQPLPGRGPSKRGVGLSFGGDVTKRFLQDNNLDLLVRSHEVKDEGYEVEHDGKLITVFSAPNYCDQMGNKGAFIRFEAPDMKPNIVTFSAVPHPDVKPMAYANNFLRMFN
Put plainly: In vitro phosphatase assay of GST-PAPP5 with ρNPP as substrate: effect of arachidonic acid and okadaic acid. Format: biochemical. The procedure: In order to examine whether the inventive PAPP5 protein has enzymatic activity, an enzymatic assay was performed using […] ρ-nitrophenyl phosphate (ρNPP) as a substrate. First, the GST-PAPP5 fusion protein purified in Example <4-1> was prewarmed at 30° C. for 1 minute. The prewarmed enzyme solution was added to 100 μl of kinase/phosphatase (KP) buffer (20 mM Tris-HCl pH 7.5, 30 mM MgCl2, 1 mM EDTA, 1 mM EGTA, 0.1% β-mercaptoethanol, 0.1% ethanol) containing O-400 mM ρNPP to initiate a reaction. […] . After reaction at 30° C. for 15 minutes, 900 μl of 0.25N NaOH was added to terminate the reaction. The absorbance at 410 nm was measured. After subtracting the absorbance value of the control reaction solution containing all the components except for the enzyme from that of the reaction solution containing the enzyme, the rate was calculated using a millimolar extinction coefficient (17.8) of ρ-nitrophenolate ions.
In order to confirm if the phosphatase activity of the inventive PAPP5 protein is activated by arachidonic acid, 0-300 μM arachidonic acid was added to a reaction mixture in the presence of 100 mM ρNPP, and the enzymatic activity was measured according to the same method as Example <6-1>.
Thus, the inhibitory effect of okadaic acid on the phosphatase activity of GST-PAPP5 was examined. As a result, the IC50 of okadaic acid, at which the enzyme activity is inhibited by 50%, was 5 nM (data not shown).
(§1) Thus, in order to confirm if PAPP5 also have this property, the present inventors examined the phosphatase activities of GST-PAPP5, GST-TPR and GST-PP2Ac in the same manner as in Example <6-1>. At this time, the concentration of ρNPP was 100 mM.

Data set [1] concerns the target autophosphorylated oat Pfr phytochrome A (oat).
For data set [2], the system named is autophosphorylated oat phytochrome A. Put plainly: Dephosphorylation of autophosphorylated phytochrome by PAPP5 in vitro. Format: biochemical. The note with it: 1 μg fusion protein, 30 minutes. As to the method:
First, KP buffer (20 mM Tris-HCl pH7.5, 30 mM MgCl2, 1 mM EDTA, 1 mM EGTA, 0.1% β-mercaptoethanol, 0.1% ethanol) containing 1 μg of purified oat phytochrome A (provided from Kumho Life and Environmental Science Laboratory, Korea) was set on ice and irradiated with Rc light output of 50 μmolS^−1m^−2 at 664 nm for 5 minutes. Then, the reaction solution was allowed to react with [γ-^32P]ATP in dark conditions for 30 minutes (autophosphorylation of phytochrome A). Following addition of 1 μg of each of the fusion proteins GST-PAPP5, GST-TPR and GST-PP2Ac prepared in Examples <4-1> and <5-1>, the reaction continued for more 30 minutes, and then stopped by adding 12 μl of 5× Tris-glycine SDS sample buffer under dim green safe light.
Next, the present inventors investigated whether the phosphatase activity of PAPP5 depends on a change in the spectroscopic structure (photoconversion) of phytochrome molecules (Pr⇄Pfr). KP buffer solution containing phytochrome was set on ice and irradiated with a Rc light output of 50 μmolS^−1m^−2 at 664 nm (conversion of phytochrome into Pfr form) or a FRc light output of 50 μmolS^−1m^−2 at 748 nm (conversion of phytochrome into […]) for 5 minutes. Then, the autophosphylation/dephosphorylation test of phytochrome was performed in the same manner as described above.

In the next data set the test system is phytochromes. The data set is described as follows: Quantitative yeast two-hybrid assay (β-galactosidase activity). Format: cell-based, Arabidopsis thaliana. The note with it: PHYA or PHYB bait, EGY48 yeast. As to the method:
In order to quantitatively assay the interaction between the TPR domain of PAPP5 and phytochromes, each of recombinant vectors (preys) for the TPR domain of PAPP5 and for the PP2A catalytic domain of PAPP5 were prepared, respectively.
A PHYA gene or a PHYB gene was prepared by performing PCR according to the same method as in Example <4-2>, and inserted into a pGilda vector. The recombinant vector was used as a bait. The prepared bait or prey was co-introduced into an EGY48 yeast strain together with a pSH18-34 reporter plasmid. The transformed strain was cultured until the OD600 value reached about 0.7. The cultured cells were washed one time with Z-buffer solution (60 mM Na2HPO4, 40 mM NaH2PO4, 10 mM KCl, 1 mM MgSO4, pH 7.0), and then re-suspended in the solution. Thereafter, the solution was frozen with liquid N2. The frozen solution was dissolved, to which β-mercaptoethanol and ONPG (o-nitrophenyl-β-D-galactopyranoside) were then added at final concentrations of 0.2% and 0.67 mg/ml, respectively. The dissolved solution was allowed to react for 30 minutes at 37° C. Next, Na2CO3 was added to the solution at a final concentration of 0.3 M to terminate the reaction. The absorbance at […] was measured, and the β-galactosidase activity was determined in Miller units (Miller, J. H. Experiments in Molecular Genetics (Cold Spring Harbor Laboratory, Cold Spring harbor, N.Y., 1972)).

A short description of data set [3]: In vitro phosphatase assay: enzymatic activity of PAPP5 and its domain fragments on ρNPP. Format: biochemical. Conditions: 100 mM ρNPP; regardless of the addition of arachidonic acid. As to the method: In order to examine whether the inventive PAPP5 protein has enzymatic activity, an enzymatic assay was performed using […] ρ-nitrophenyl phosphate (ρNPP) as a substrate. First, the GST-PAPP5 fusion protein purified in Example <4-1> was prewarmed at 30° C. for 1 minute. The prewarmed enzyme solution was added to 100 μl of kinase/phosphatase (KP) buffer (20 mM Tris-HCl pH 7.5, 30 mM MgCl2, 1 mM EDTA, 1 mM EGTA, 0.1% β-mercaptoethanol, 0.1% ethanol) containing O-400 mM ρNPP to initiate a reaction. To examine the autohydrolysis of ρNPP at each substrate concentration, the GST-PAPP5 enzyme solution was not added to a control group. After reaction at 30° C. for 15 minutes, 900 μl of 0.25N NaOH was added to terminate the reaction. The absorbance at 410 nm was measured. After subtracting the absorbance value of the control reaction solution containing all the components except for the enzyme from that of the reaction solution containing the enzyme, the rate was calculated using a millimolar extinction coefficient (17.8) of ρ-nitrophenolate ions.
as §1

In a further data set the test system is phytochrome molecules. The data set is described as follows: Pull-down assay with PAPP5 domain fragments. The format is binding, Arabidopsis thaliana. The procedure: Thereafter, according to the same method as in Example <4-1>, an in vitro assay was performed on each of the proteins which have been expressed and purified in E. coli.

The source of these data is US7728193B2, “Phytochrome-interacting protein and a use thereof” (Genomine Inc., priority 2004, dated 2010).

As to `CCCCC/C=C\C/C=C\C/C=C\C/C=C\CCCC(=O)O` [arachidonic acid], the “arachidonic acid concentration at which activity of GST-PAPP5 reached the stationary phase” value at GST-PAPP5 (0-300 μM arachidonic acid, 100 mM ρNPP) is recorded as “above 100 μM”. Besides, at GST-PAPP5 (100 mM ρNPP), the “increase of phosphatase activity of GST-PAPP5 by arachidonic acid” value was “about five times increased”.
Take `C=C1[C@@H](O)[C@@H]2O[C@]3(CC[C@H](/C=C/[C@@H](C)[C@@H]4CC(C)=C[C@@]5(O[C@H](C[C@@](C)(O)C(=O)O)CC[C@H]5O)O4)O3)CC[C@H]2O[C@@H]1[C@@H](O)C[C@H](C)[C@H]1O[C@@]2(CCCCO2)CC[C@H]1C` [okadaic acid]: at GST-PAPP5 (phosphatase activity of GST-PAPP5, data not shown, read-out: IC50 of okadaic acid, at which the enzyme activity is inhibited by 50%), the IC50 is 5 nM.
Consider GST-PAPP5 fusion protein (enzyme), for which the dephosphorylation of autophosphorylated phytochrome A (autoradiography after SDS-PAGE) in data set [1] was 80%.
For the molecule “GST-PAPP5: a fusion protein of GST and full-length PAPP5”, in data set [2], the “dephosphorylation of autophosphorylated oat Pfr phytochrome A” value is reported as “about 80%”.

B1: B42-PP2Ac: TPR domain-deleted PP2A catalytic domain of PAPP5 as yeast two-hybrid prey (protein)
chain: SVPVSERRSVAESIDFHTIEVEPQYSGARIEGEEVTLDFVKTMMEDFKNQKTLHKRYAYQIVLQTRQILLALPSLVDISVPHGKHITVCGDVHGQFYDLLNIFELNGLPSEENPYLFNGDFVDRGSFSVEIILTLFAFKCMCPSSIYLARGNHESKSMNKIYGFEGEVRSKLSEKFVDLFAEVFCYLPLAHVINGKVFVVHGGLFSVDGVKLSDIRAIDRFCEPPEEGLMCELLWSDPQPLPGRGPSKRGVGLSFGGDVTKRFLQDNNLDLLVRSHEVKDEGYEVEHDGKLITVFSAPNYCDQMGNKGAFIRFEAPDMKPNIVTFSAVPHPDVKPMAYANNFLRMFN
With B1, in the data set on phytochromes, the “activity of interaction with phytochromes (β-galactosidase activity)” value is reported as “remarkable reduction”.

B2: GST-PP2Ac: fusion of GST and PP2A catalytic domain of PAPP5 with a deletion of amino acids 1-138 in SEQ ID NO: 4 (protein)
chain: SVPVSERRSVAESIDFHTIEVEPQYSGARIEGEEVTLDFVKTMMEDFKNQKTLHKRYAYQIVLQTRQILLALPSLVDISVPHGKHITVCGDVHGQFYDLLNIFELNGLPSEENPYLFNGDFVDRGSFSVEIILTLFAFKCMCPSSIYLARGNHESKSMNKIYGFEGEVRSKLSEKFVDLFAEVFCYLPLAHVINGKVFVVHGGLFSVDGVKLSDIRAIDRFCEPPEEGLMCELLWSDPQPLPGRGPSKRGVGLSFGGDVTKRFLQDNNLDLLVRSHEVKDEGYEVEHDGKLITVFSAPNYCDQMGNKGAFIRFEAPDMKPNIVTFSAVPHPDVKPMAYANNFLRMFN
For the molecule B2, in data set [2], the “level of dephosphorylation of autophosphorylated oat Pfr phytochrome A (in words)” value is “very low”. For the same molecule, the “phosphatase activity relative to GST-PAPP5 with no arachidonic acid” value in data set [3] is “five times higher activity”.

B3: GST-TPR: fusion protein of GST and TPR domain of PAPP5, amino acids 1-138 of SEQ ID NO: 4 (protein)
chain: METKNENSDVSRAEEFKSQANEAFKGHKYSSAIDLYTKAIELNSNNAVYWANRAFAHTKLEEYGSAIQDASKAIEVDSRYSKGYYRRGAAYLAMGKFKDALKDFQQVKRLSPNDPDATRKLKECEKAVMKLKFEEAIS
In the case of B3, in the data set with phytochrome molecules, the “ability to interact with phytochrome molecules (pull-down)” value is reported as “has the ability to interact”. The “level of dephosphorylation of autophosphorylated oat Pfr phytochrome A (in words)” value in data set [2] is recorded as “do not affect the phosphorylation status”.

For orientation: IC50 means the concentration at which inhibition is half-maximal.
